Assay results: US20210130473A1 (SILVERBACK THERAPEUTICS, published 2021)
Read-outs that look alike come from different tables or passages of the source. One block for each binder: values may come before it.

Assays:
[1] = target: T1, human ASGR1 (asialoglycoprotein receptor 1) on cells (human, UniProt P07306 1-291); experiment: competition flow cytometry on CHO-S cells with human ASGR1; 200 nM F(ab')2 against 33 nM GalNac-hFc
T1 construct: whole, on cells; also called HepG2 cells; CHO-S cells transfected with human ASGR1 full length DNA
T1 sequence (looked up): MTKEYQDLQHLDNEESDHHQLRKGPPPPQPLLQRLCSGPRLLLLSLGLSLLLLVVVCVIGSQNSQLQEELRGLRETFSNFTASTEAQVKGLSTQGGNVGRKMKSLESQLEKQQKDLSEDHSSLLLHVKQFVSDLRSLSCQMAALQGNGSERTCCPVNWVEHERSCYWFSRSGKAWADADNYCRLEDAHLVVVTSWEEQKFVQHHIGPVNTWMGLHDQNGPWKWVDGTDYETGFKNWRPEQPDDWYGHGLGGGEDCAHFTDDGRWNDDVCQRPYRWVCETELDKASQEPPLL

[2] = target: T1, human ASGR1 (asialoglycoprotein …); experiment: Guava flow cytometry screen on HepG2 cells
[3] = target: T1, human ASGR1 (asialoglycoprotein …); experiment: Guava flow cytometry screen on HepG2 cells; remark: listed apart in the source
[4] = target: T1, human ASGR1 (asialoglycoprotein …); experiment: flow cytometry on HepG2 cells, anti-human IgG PE secondary, MFI (Geo Mean)
Procedure: Briefly, 5×10⁴ HepG2 cells/well were contacted with titrating concentrations of anti-ASGR1 antibodies in FACS Buffer (FB: PBS+2% FBS+1 mM CaCl₂)) for 30 minutes at 4° C. Cells were washed twice in FB, then incubated in anti-human IgG PE secondary for 30 minutes at 4° C. Cells were washed twice in FB, then analyzed by flow cytometry.

[5] = target: T2, Cynomolgus macaque ASGR1 on CHO-S cells (Cynomolgus macaque); experiment: Guava flow cytometry on CHO-S cells expressing cynomolgus ASGR1
T2 construct: whole, on cells; also called Cynomologous ASGR1
Procedure: (§1) Anti-human ASGR1 antibodies of this disclosure were examined for cross-reactivity with Cynomolgus macaque and rat ASGR1. Briefly, sequence encoding Cynomolgus macaque or rat ASGR1 was transiently transfected into CHO-S cells. Transfected cells were before performing cell binding assay. A total of about 1.5×10⁴ transfected cells/well were added to 96-well V-bottom assay plate, incubated at 37° C., 5% CO2 for 48-72 hours, and then washed with culture medium before adding 100 μl of each ASGR1 antibody at different concentrations starting from 100 nM and 3-fold dilutions to a total of eight wells. The cells with antibody were incubated for 40 minutes at 4° C., then washed three times with 200 μl of fresh culture medium. To each well was added 50 μl PE conjugated goat anti-human Fc (SouthemBiotech) at 1:200 dilution in culture medium and then incubated at 4° C. for 20 minutes. After washing the plate once, the treated cells were resuspended in 200 μl culture medium and then the stained cells were analyzed on GUAVA® using Incyte software.

[6] = target: T2, Cynomolgus macaque ASGR1 on CHO-S cells; experiment: Guava flow cytometry on CHO-S cells expressing cynomolgus ASGR1 (repeat of Table 15)
Procedure: as §1

B1: F(ab')2 fragment of hzH8K-1 (F(ab')2)
VH: QVQLQESGPGLVKPSQTLSLTCTVSGGSISSDYAWNWIRQHPGKGLEWIGYRSYRGSTSYNPSLKSRVTISVDTSKNQFSLKLSSVTAADTAVYYCARRGYYGSSSHWYFDVWGQGTTVTVSS
VL: DIQMTQSPSSLSASVGDRVTITCRASENIYSYLAWYQQKPGKAPKLLIYNAKTLAEGVPSRFSGSGSGTDFTLTISSLQPEDFATYYCQHHYGTPLTFGGGTKVEIK
- % Blocking GalNac Binding [1]: 81.3%

B3: F(ab')2 fragment of K2E (F(ab')2)
VH: QVQLQQSAAELARPGASVKMSCKASGYTFTSYTMHWVKQRPGQGLEWIGYISPSSGYTEYNQKFKDKTTLTADKSSSTAYMQLSSLTSEDSAVYYCARKFDYWGQGTTLTVSS
VL: DIKMTQSPSSMYASLGERVTITCKASQDINSYLSWFQQKPGKSPKTLIYRANRLVDGVPSRFSGSGSGQDFSLTISSLEYEDMGIYYCLQYDEFPFTFGSGTKLEIK
- % Blocking GalNac Binding [1]: 10%

B4: hzL4L-5 (antibody, IgG1, V domains shown)
VH: QVQLQESGPGLVKPSQTLSLTCTVSGYSISSDYAWNWIRQHPGKGLEWIGYISYSGSTRYNPSLKSRISITRDTSKNQFSLKLSSVTAADTAVYYCARRYRYDEGYGMDYWGQGTTVTVSS
VL: DIQMTQSPSSLSASVGDRVTITCRASENIYSNLAWYQQKPGKAPKLLIYAATNLADGVPSRFSGSGSGTDFTLTISSLQPEDFATYYCQHFWGTPPWTFGGGTKVEIK
notes: IgG1, kappa
- binding result [2]: binds

B5: hzL4L-10 (antibody, IgG1, V domains shown)
VH: QVQLQESGPGLVKPSQTLSLTCTVSGYSITSDYAWNWIRQHPGKGLEWIGYISYSGSTRYNPSLKSRISITRDTSKNQFSLKLSSVTAADTAVYYCARRYRYDEGYGMDYWGQGTTVTVSS
VL: DIQMTQSPSSLSASVGDRVTITCRASENIYSNLAWYQQKPGKAPKLLIYAATNLASGVPSRFSGSGSGTDFTLTISSLQPEDFATYYCQHFWGTPPWTFGGGTKVEIK
notes: IgG1, kappa
- binding result [2]: binds

B6: hzL4L-2 (antibody, IgG1, V domains shown)
VH: QVQLQESGPGLVKPSQTLSLTCTVSGGSITSDYAWNWIRQHPGKGLEWIGYISYSGSTRYNPSLKSRISITRDTSKNQFSLKLSSVTAADTAVYYCARRYRYDEGYGMDYWGQGTTVTVSS
VL: DIQMTQSPSSLSASVGDRVTITCRASENIYSNLAWYQQKPGKAPKLLIYAATNLADGVPSRFSGSGSGTDFTLTISSLQPEDFATYYCQHFWGTPPWTFGGGTKVEIK
notes: IgG1, kappa
- binding result [2]: binds

B7: hzL4L-6 (antibody, IgG1, V domains shown)
VH: QVQLQESGPGLVKPSQTLSLTCTVSGYSITSDYAWNWIRQHPGKGLEWIGYISYSGSTRYNPSLKSRVTITRDTSKNQFSLKLSSVTAADTAVYYCARRYRYDEGYGMDYWGQGTTVTVSS
VL: DIQMTQSPSSLSASVGDRVTITCRASENIYSNLAWYQQKPGKAPKLLIYAATNLADGVPSRFSGSGSGTDFTLTISSLQPEDFATYYCQHFWGTPPWTFGGGTKVEIK
notes: IgG1, kappa
- binding result [2]: binds

B9: F(ab')2 fragment of J4F (F(ab')2)
VH: QVQLQQSGDDLVKPGASVKLSCKASGYTFTSYWINWIKQRPGQGLEWIGRIVPGSGSTYYNEMFKDKATLTVDTSSSTAYIQLSSLSSEDSAVYFCARKPNFDVWGAGTTVTVSS
VL: DIVMTQSQKFMSTSVGDRVSVTCKASQNVGTNVAWYQQKPGQSPKAVIYSASYRFSGVPDRLTGSGSGTDFTLTITNVQSEDLAEYFCQQYNSYPLTFGAGTKLELK
- % Blocking GalNac Binding [1]: -32.1%

B10: hzG2D-17 (antibody, human IgG1, kappa, V domains shown)
VH: QVQLVQSGAEVKKPGASVKVSCKASGYTFTGYYMHWVRQAPGQRLEWMGRINPNNGATNYNQNFKDKASLTVDTSASTAYMELSSLRSEDTAVYYCARVNFYYWGQGTTLTVSS
VL: DIKMTQSPSSMYASLGERVTITCKASQVINSYLSWFQQKPGKSPETLIYRANTLVDGVPSRFSGSGSGQDYSLTISSLEYEDLGIYYCLQYAEFPYTFGGGTKLEIKR
notes: humanized VH with the mouse G2D VL
- binding result [3]: binds

B12: hzG2D-20 (antibody, human IgG1, kappa)
heavy: not shown
light: DIQMTQSPSSLSASVGDRVTITCKASQVINSYLSWFQQKPGKAPKSLIYRANTLVDGVPSRFSGSGSGTDFTLTISSLQPEDFATYYCLQYAEFPYTFGGGTKVEIKRTVAAPSVFIFPPSDEQLKSGTASVVCLLNNFYPREAKVQWKVDNALQSGNSQESVTEQDSKDSTYSLSSTLTLSKADYEKHKVYACEVTHQGLSSPVTKSFNRGEC
- binding result [3]: binds

Now from value to binder:

- % Blocking GalNac Binding [1]: -0.3%
B2: F(ab')2 fragment of G2D (F(ab')2)
VH: EVQLQQSGPELVKPGASVKISCKASGYSFTGYYMHWVKQSHVKSLEWIGRINPNNGATNYNQNFKDKASLTVDKSSSTAYMEFHSLTSEDSAVYYCTSVNFYYWGQGTTLTVSS
VL: DIKMTQSPSSMYASLGERVTITCKASQVINSYLSWFQQKPGKSPETLIYRANTLVDGVPSRFSGSGSGQDYSLTISSLEYEDLGIYYCLQYAEFPYTFGGGTKLEIK

- % Blocking GalNac Binding [1]: 90.7%
B8: F(ab')2 fragment of hzL4L-14 (F(ab')2)
VH: QVQLQESGPGLVKPSQTLSLTCTVSGYSISSDYAWNWIRQHPGKGLEWIGYISYSGSTRYNPSLKSRVTITRDTSKNQFSLKLSSVTAADTAVYYCARRYRYDEGYGMDYWGQGTTVTVSS
VL: DIQMTQSPSSLSASVGDRVTITCRASENIYSNLAWYQQKPGKAPKLLIYAATNLAEGVPSRFSGSGSGTDFTLTISSLQPEDFATYYCQHFWGTPPWTFGGGTKVEIK

- binding result [3]: binds
B11: hzG2D-11 (antibody, human IgG1, kappa)
heavy: not shown
light: DIQMTQSPSSLSASVGDRVTITCKASQVINSYLSWFQQKPGKAPKSLIYRANTLVDGVPSRFSGSGSGTDFTLTISSLQPEDFATYYCLQYAEFPYTFGGGTKVEIKRTVAAPSVFIFPPSDEQLKSGTASVVCLLNNFYPREAKVQWKVDNALQSGNSQESVTEQDSKDSTYSLSSTLTLSKADYEKHKVYACEVTHQGLSSPVTKSFNRGEC

- EC50 (read off the curve) [4]: ~0.3 µg/mL
- EC50 [5]: 2.35 nM
- EC50 [6]: 2.35 nM
B13: ASGR1 mAb-C (antibody, V domains shown)
VH: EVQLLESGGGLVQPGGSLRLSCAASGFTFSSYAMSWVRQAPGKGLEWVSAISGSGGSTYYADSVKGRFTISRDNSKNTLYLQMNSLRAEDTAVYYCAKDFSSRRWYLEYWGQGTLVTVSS
VL: SSELTQDPAVSVALGQTVRITCQGDSLRSYYASWYQQKPGQAPVLVIYGKNNRPSGIPDRFSGSSSGNTASLTITGAQAEDEADYYCNSLERIGYLSYVFGGGTKLTVL
notes: control with CDRs of anti-ASGR1 antibody 4F3; mouse IgG2a or human IgG1 isotype by assay; also called 4F3

- % Blocking GalNac Binding [1]: -5.4%
B14: F(ab')2 fragment of ASGR1 mAb-C (F(ab')2)
VH: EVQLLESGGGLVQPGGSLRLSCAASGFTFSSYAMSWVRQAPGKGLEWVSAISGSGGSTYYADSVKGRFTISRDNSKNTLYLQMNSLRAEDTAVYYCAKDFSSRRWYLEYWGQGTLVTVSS
VL: SSELTQDPAVSVALGQTVRITCQGDSLRSYYASWYQQKPGQAPVLVIYGKNNRPSGIPDRFSGSSSGNTASLTITGAQAEDEADYYCNSLERIGYLSYVFGGGTKLTVL
modifications: F(ab')2 fragment: two Fab arms joined at the hinge, with the Fc removed.
